Target: presenilin-1 (wild-type PS1) (UniProt P49768)
Assay: FRET or BRET

V5-tagged ubiquilin-1 transcript variant 3 (TV3) (natural protein)
Alexa 430 donor lifetime with Cy3 acceptor on PS1 CT: 1350 psec | FRET strength: 0.3

— paper PMC3050036
